Source: the Human Domainome abundance scans (Beltran et al. 2025)
± gives the uncertainty stated by the source.

B1: GAS2-like protein 1, residues 209 to 276; numbered along this chain, Q99501 (parent)
chain: DELVREILGRCTCPDQFPMIKVSEGKYRVGDSSLLIFVRVLRSHVMVRVGGGWDTLEHYLDKHDPCRC

Variants of: B1
Experiment: abundance fitness (aPCA) (normalised: wild type 0, dead -1); higher = more abundant; growth selection in yeast, the domain comes from the species named
Conditions: Homo sapiens

Abundance fitness, by site and new letter:
G30: W -0.952 ± 0.19, I -0.803 ± 0.21, H -0.653 ± 0.13, E -0.862 ± 0.12, T -0.569 ± 0.072, L -0.605 ± 0.068, K -0.371 ± 0.085, M -0.432 ± 0.069, P -0.506 ± 0.088, F -0.927 ± 0.19, S -0.53 ± 0.058, N -0.526 ± 0.15, C -0.532 ± 0.2, R -0.302 ± 0.049, D -0.337 ± 0.084, Q -0.603 ± 0.12, A -0.35 ± 0.054, V -0.646 ± 0.08
G25: C -0.236 ± 0.098, K -0.739 ± 0.25, F -0.366 ± 0.098, I -1.07 ± 0.18, E -0.345 ± 0.079, D -0.07 ± 0.082, Q -0.13 ± 0.08, N -0.116 ± 0.11, W -0.58 ± 0.048, L -0.914 ± 0.091, P -0.809 ± 0.19, R -0.328 ± 0.048, Y -0.388 ± 0.11, V -0.961 ± 0.18, S -0.158 ± 0.041
V29: E -0.978 ± 0.26, C -0.213 ± 0.077, F -0.163 ± 0.061, T -0.531 ± 0.07, I 0.129 ± 0.047, Q -0.501 ± 0.081, R -0.305 ± 0.073, N -0.793 ± 0.33, Y -0.489 ± 0.18, G -0.807 ± 0.097, M -0.187 ± 0.05, K -0.855 ± 0.19, S -0.422 ± 0.09, H -0.188 ± 0.16, A -0.34 ± 0.07, W -0.551 ± 0.089, P -0.985 ± 0.15
I20: W 0.008 ± 0.06, C -0.366 ± 0.1, R -0.009 ± 0.046, A -0.216 ± 0.08, Q 0.026 ± 0.1, L -0.151 ± 0.06, F -0.096 ± 0.069, N -0.111 ± 0.16, G -0.498 ± 0.073, E -0.016 ± 0.087, K -0.037 ± 0.2, P -0.917 ± 0.25, H 0.167 ± 0.12, S -0.207 ± 0.064, Y 0.054 ± 0.054, V -0.021 ± 0.052
K26: A -0.063 ± 0.16, F -0.013 ± 0.14, H -0.035 ± 0.15, C 0.204 ± 0.18, T 0.149 ± 0.067, S -0.075 ± 0.092, V 0.177 ± 0.065, G -0.589 ± 0.2, Q 0.237 ± 0.12, M -0.213 ± 0.17, N -0.317 ± 0.092, W 0.132 ± 0.077, E -0.418 ± 0.17, L -0.145 ± 0.11, R 0 ± 0.094
R28: C -0.159 ± 0.091, F -0.668 ± 0.14, E -0.516 ± 0.063, A -0.235 ± 0.053, Q -0.265 ± 0.12, N -0.857 ± 0.18, G -0.944 ± 0.14, H -0.549 ± 0.13, P -0.964 ± 0.18, L -0.05 ± 0.04, M 0.041 ± 0.061, Y -0.341 ± 0.068, V -0.15 ± 0.048, T -0.467 ± 0.1, K -0.07 ± 0.044, I -0.208 ± 0.068, W -0.403 ± 0.079
D31: T 0.059 ± 0.05, S -0.07 ± 0.049, W -0.153 ± 0.11, C -0.146 ± 0.074, H 0.039 ± 0.1, N 0.084 ± 0.064, E 0.007 ± 0.061, A -0.06 ± 0.046, K -0.162 ± 0.062, M -0.148 ± 0.057, F -0.303 ± 0.21, G -0.066 ± 0.04, R -0.087 ± 0.06, V -0.146 ± 0.042, Y -0.181 ± 0.065, L -0.141 ± 0.047, P -0.066 ± 0.09, Q 0.048 ± 0.098, I -0.144 ± 0.06
L35: N 0.097 ± 0.085, D -0.003 ± 0.071, E 0.099 ± 0.087, A -0.111 ± 0.051, F -0.187 ± 0.06, K -0.227 ± 0.086, C -0.013 ± 0.053, I 0.069 ± 0.074, H -0.247 ± 0.1, G -0.383 ± 0.075, M -0.025 ± 0.044
E24: D 0.062 ± 0.12, L -0.715 ± 0.19, H -0.193 ± 0.22, Q 0.041 ± 0.15, S -0.254 ± 0.084, W -0.422 ± 0.14, T -0.579 ± 0.47, P -0.246 ± 0.12, R -0.417 ± 0.075, C -0.588 ± 0.25, A -0.099 ± 0.085, V -0.505 ± 0.12
Y27: S -0.861 ± 0.12, T -0.855 ± 0.17, G -0.891 ± 0.12, L -0.849 ± 0.11, W 0.079 ± 0.087, F -0.579 ± 0.11, M -0.597 ± 0.28, C -0.874 ± 0.26, V -0.996 ± 0.15, I -0.287 ± 0.42, P -0.866 ± 0.17, R -0.85 ± 0.14
L34: Q 0.238 ± 0.063, W -0.085 ± 0.043, D 0.379 ± 0.1, M 0.131 ± 0.048, A 0.191 ± 0.043, R -0.312 ± 0.043, S 0.154 ± 0.039, V 0.103 ± 0.047, H 0.112 ± 0.12, Y -0.015 ± 0.074, T 0.05 ± 0.047, N 0.094 ± 0.083, F -0.124 ± 0.1, I 0.102 ± 0.063, G 0.135 ± 0.035, E 0.316 ± 0.048, C 0.129 ± 0.065
V22: C -0.365 ± 0.099, F -0.518 ± 0.13, D -0.327 ± 0.28, P -0.971 ± 0.29, L -0.323 ± 0.055, I -0.035 ± 0.081, T -0.662 ± 0.17, Y -0.795 ± 0.14, S -0.848 ± 0.098, A -0.311 ± 0.34, R -0.428 ± 0.073, G -0.916 ± 0.39, H -0.26 ± 0.12, M -0.251 ± 0.071
P18: L -0.471 ± 0.054, S -0.043 ± 0.045, N -0.15 ± 0.079, H -0.222 ± 0.09, D -0.207 ± 0.064, G -0.475 ± 0.058, I -0.524 ± 0.1, E -0.132 ± 0.066, F -0.645 ± 0.16, W -0.809 ± 0.12, Q 0.011 ± 0.072, M -0.501 ± 0.085, C -0.512 ± 0.082, K 0.026 ± 0.063, Y -0.669 ± 0.14, R -0.012 ± 0.033
D15: W -0.32 ± 0.069, H 0.017 ± 0.082, G -0.379 ± 0.1, S 0.026 ± 0.039, R 0.018 ± 0.038, N 0.087 ± 0.077, K 0.034 ± 0.053, C -0.188 ± 0.045, A 0.04 ± 0.044, M 0.046 ± 0.05, L -0.058 ± 0.034, F -0.259 ± 0.06, E 0.101 ± 0.052, T 0.125 ± 0.059, P -0.964 ± 0.21, I 0.014 ± 0.058, Q -0.002 ± 0.081, Y -0.151 ± 0.052, V 0.054 ± 0.04
S23: N -0.483 ± 0.15, K -0.336 ± 0.079, D 0.028 ± 0.05, E 0.099 ± 0.062, R -0.359 ± 0.062, T -0.036 ± 0.057, M -0.47 ± 0.064, L -0.809 ± 0.079, G 0.013 ± 0.045, I -0.861 ± 0.2, C -0.031 ± 0.088, Q -0.141 ± 0.089, P -0.914 ± 0.12, A -0.023 ± 0.048, V -0.674 ± 0.073, W -0.53 ± 0.11, H -0.325 ± 0.058, F -0.83 ± 0.24
F17: K -0.831 ± 0.13, S -0.925 ± 0.12, T -0.858 ± 0.11, Q -0.88 ± 0.18, G -0.743 ± 0.08, L -0.667 ± 0.049, A -0.955 ± 0.15, V -0.768 ± 0.082, R -0.865 ± 0.1, W -0.741 ± 0.096, I -0.846 ± 0.19, Y 0.098 ± 0.088, M -0.777 ± 0.16, C -1 ± 0.23
M19: E -1.02 ± 0.36, A -0.539 ± 0.061, F 0.171 ± 0.071, I -0.345 ± 0.083, T -0.96 ± 0.17, D -1.18 ± 0.33, C -0.664 ± 0.24, N -0.74 ± 0.3, L -0.011 ± 0.044, W -0.121 ± 0.079, P -1.05 ± 0.26, R -0.516 ± 0.081, K -0.527 ± 0.27, G -0.845 ± 0.17, S -0.895 ± 0.13, H -0.429 ± 0.13, Q -0.961 ± 0.25
K21: V -0.791 ± 0.087, T -0.739 ± 0.11, P -0.646 ± 0.1, M -0.297 ± 0.087, E -0.396 ± 0.1, G -0.689 ± 0.077, Y -0.525 ± 0.12, N -0.828 ± 0.24, W -0.397 ± 0.08, H -0.426 ± 0.085, A -0.748 ± 0.14, L -0.541 ± 0.062, S -0.747 ± 0.088, R 0.01 ± 0.036, D -0.804 ± 0.2, I -0.981 ± 0.27, Q -0.254 ± 0.076, C -0.543 ± 0.21
Q16: I -0.351 ± 0.077, A -0.224 ± 0.053, N -0.634 ± 0.12, G -0.131 ± 0.046, F -0.623 ± 0.16, T -0.11 ± 0.044, S -0.172 ± 0.041, V -0.269 ± 0.043, E -0.42 ± 0.12, K 0.113 ± 0.047, Y -0.848 ± 0.11, H -0.486 ± 0.095, P 0.131 ± 0.047, M -0.276 ± 0.048
S32: V -0.596 ± 0.073, E 0.013 ± 0.056, D 0.098 ± 0.053, F -0.749 ± 0.11, H -0.16 ± 0.074, N -0.071 ± 0.05, G -0.085 ± 0.047, P -0.121 ± 0.056, T -0.026 ± 0.063, K -0.175 ± 0.053, A -0.064 ± 0.046, Q -0.044 ± 0.061, Y -0.455 ± 0.096, I -0.755 ± 0.16, M -0.252 ± 0.06, W -0.892 ± 0.19, R -0.142 ± 0.04
S33: I -0.856 ± 0.17, M -0.074 ± 0.054, H 0.014 ± 0.077, Y -0.413 ± 0.065, C -0.115 ± 0.048, K 0.028 ± 0.068, N 0.113 ± 0.054, P 0.01 ± 0.047, V -0.647 ± 0.061, Q 0.051 ± 0.067, F -0.549 ± 0.11, D 0.039 ± 0.057, W -0.637 ± 0.099, R -0.043 ± 0.039, A -0.019 ± 0.043, E 0.113 ± 0.057, T -0.182 ± 0.058, L -0.194 ± 0.046
